Experimental data published in patent publication US20240158459A1 (KYVERNA THERAPEUTICS, published 2024).

T1: biotinylated-MADCAM-1 antigen (human, UniProt Q13477 19-317, limits assumed, biotinylated (site not stated))
T1 construct: The BLI paragraph says only 'biotinylated-MADCAM-1 antigen'; also called mucosal addressin cell adhesion molecule 1
T1 sequence (looked up): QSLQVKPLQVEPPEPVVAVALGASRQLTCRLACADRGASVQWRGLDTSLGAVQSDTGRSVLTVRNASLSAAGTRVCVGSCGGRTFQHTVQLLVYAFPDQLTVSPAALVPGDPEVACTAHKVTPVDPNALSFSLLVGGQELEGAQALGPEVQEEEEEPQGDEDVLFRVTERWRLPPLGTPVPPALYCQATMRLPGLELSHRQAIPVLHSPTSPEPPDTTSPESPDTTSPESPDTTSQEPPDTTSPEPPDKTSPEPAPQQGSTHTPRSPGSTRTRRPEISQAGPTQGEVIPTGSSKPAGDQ


What follows are binders tested against T1, biotinylated-MADCAM-1 antigen (assay: BLI, biotinylated MADCAM-1 on streptavidin biosensors, scFv titrated, global 1:1 fit).
Experimental: Binding affinity (KD) of MADCAM-1 scFv antibodies from Table 2 was measured using biolayer interferometry (See also FIG. 6). Streptavidin biosensors were loaded for 5 seconds with 10 Tg/mL biotinylated-MADCAM-1 antigen followed by acquisition of the baseline signal in phosphate buffer saline supplemented with bovine serum albumin and sodium azide. For the association step loaded probes were incubated for 250 seconds with a titration of anti-MADCAM-1 scFv antibodies at concentrations generally between 0 nM and 2 TM. This was followed by a dissociation step in buffer lacking anti-MADCAM-1 scFv for 250 seconds. Experimental data was normalized to a reference probe and high-frequency noise was removed by Savitzky-Golay filtering. On and off-rate constants were determined using a globally fitted 1:1 binding model.

Kd | koff | kon | Binder
6.7 nM | 0.00219 s⁻¹ | 327000 M⁻¹ s⁻¹ | MAdCAM1 scFv 32.6 (scFv, Humanized rabbit-derived scFv, VH-(G4S)3-VL) scFv: QVQLVESGGGVVQPGRSLRLSCAASGFSFSSSYWICWVRQAPGKGLEWVACIYGGSSGATYYANWAKGRFTISRDNSTNTLFLQMNSLRAEDTAVYYCARSGSTTSGGVYRWYFNLWGQGTLVTVSSGGGGSGGGGSGGGGSDIQMTQSPSSLSASVGDRVTITCQASENIYNLLAWYQQKPGKAPKLLIYDASNLETGVPSRFSGSGSGTDFTFTISSLQPEDIATYYCQFTYYGGTYESAFGGGTKVEIK
12.1 nM | 0.00491 s⁻¹ | 407000 M⁻¹ s⁻¹ | MAdCAM1 scFv 32.3 (scFv, Humanized rabbit-derived scFv, VH-(G4S)3-VL) scFv: EVQLLESGGGLVQPGGSLRLSCAASGFSFSSSYWICWVRQAPGKGLEWVSCIYGGSSGATYYANWAKGRFTISRDNSKNTLYLQMNSLRAEDTAVYYCARSGSTTSGGVYRWYFNLWGQGTLVTVSSGGGGSGGGGSGGGGSDIQMTQSPSSLSASVGDRVTITCQASENIYNLLAWYQQKPGKVPKLLIYDASTLQSGVPSRFSGSGSGTDFTLTISSLQPEDVATYYCQFTYYGGTYESAFGGGTKVEIK
15.5 nM | 0.0083 s⁻¹ | 534000 M⁻¹ s⁻¹ | MAdCAM1 scFv 32.8 (scFv, Humanized rabbit-derived scFv, VH-(G4S)3-VL) scFv: EVQLVESGGGLVQPGGSLRLSCAASGFSFSSSYWICWVRQAPGKGLEWVSCIYGGSSGATYYANWAKGRFTISRHNSKNTLYLQMNSLRAEDTAVYYCARSGSTTSGGVYRWYFNLWGQGTLVTVSSGGGGSGGGGSGGGGSDIQMTQSPSSLSASVGDRVTITCQASENIYNLLAWYQQKPGKAPKLLIYDASNLETGVPSRFSGSGSGTDFTFTISSLQPEDIATYYCQFTYYGGTYESAFGGGTKVEIK
18.7 nM | 0.0108 s⁻¹ | 577000 M⁻¹ s⁻¹ | MAdCAM1 scFv 32.4 (scFv, Humanized rabbit-derived scFv, VH-(G4S)3-VL) scFv: EVQLLESGGGLVQPGGSLRLSCAASGFSFSSSYWICWVRQAPGKGLEWVSCIYGGSSGATYYANWAKGRFTISRDNSKNTLYLQMNSLRAEDTAVYYCARSGSTTSGGVYRWYFNLWGQGTLVTVSSGGGGSGGGGSGGGGSDIQMTQSPSSLSASVGDRVTITCQASENIYNLLAWYQQKPGKAPKLLIYDASNLETGVPSRFSGSGSGTDFTFTISSLQPEDIATYYCQFTYYGGTYESAFGGGTKVEIK
23.8 nM | 0.00991 s⁻¹ | 416000 M⁻¹ s⁻¹ | MAdCAM1 scFv 32.7 (scFv, Humanized rabbit-derived scFv, VH-(G4S)3-VL) scFv: EVQLVESGGGLVQPGGSLRLSCAASGFSFSSSYWICWVRQAPGKGLEWVSCIYGGSSGATYYANWAKGRFTISRHNSKNTLYLQMNSLRAEDTAVYYCARSGSTTSGGVYRWYFNLWGQGTLVTVSSGGGGSGGGGSGGGGSDIQMTQSPSSLSASVGDRVTITCQASENIYNLLAWYQQKPGKVPKLLIYDASTLQSGVPSRFSGSGSGTDFTLTISSLQPEDVATYYCQFTYYGGTYESAFGGGTKVEIK
5.4 nM | 0.00146 s⁻¹ | 272000 M⁻¹ s⁻¹ | MAdCAM1 scFv 32.5 (scFv, Humanized rabbit-derived scFv, VH-(G4S)3-VL) scFv: QVQLVESGGGVVQPGRSLRLSCAASGFSFSSSYWICWVRQAPGKGLEWVACIYGGSSGATYYANWAKGRFTISRDNSTNTLFLQMNSLRAEDTAVYYCARSGSTTSGGVYRWYFNLWGQGTLVTVSSGGGGSGGGGSGGGGSDIQMTQSPSSLSASVGDRVTITCQASENIYNLLAWYQQKPGKVPKLLIYDASTLQSGVPSRFSGSGSGTDFTLTISSLQPEDVATYYCQFTYYGGTYESAFGGGTKVEIK
78 nM | 0.00295 s⁻¹ | 37800 M⁻¹ s⁻¹ | MAdCAM1 scFv 8.2 (scFv, Humanized rabbit-derived scFv, VH-(G4S)3-VL) scFv: EVQLVESGGGLVQPGGSLRLSCAASGFTLSSSYYMYWVRQAPGKGLEWVSVIYAGDGNTYYASWAKGRFTISRDNSKNTLYLQMNSLRAEDTAVYYCARGYVGYGYAIDLWGQGTLVTVSSGGGGSGGGGSGGGGSAIQLTQSPSSLSASVGDRVTITCQASQSIYSSLAWYQQKPGKAPKLLIYYASILPSGVPSRFSGSGSGTDFTLTISSLQPEDFATYYCQATTYDSTYPNAFGGGTKVEIK
30.9 nM | 0.000393 s⁻¹ | 12700 M⁻¹ s⁻¹ | MAdCAM1 scFv 8.4 (scFv, Humanized rabbit-derived scFv, VH-(G4S)3-VL) scFv: EVQLLESGGGLVQPGGSLRLSCAASGFTLSSSYYMYWVRQAPGKGLEWVSAIYAGDGNTYYASWAKGRFTISRDNSKNTLYLQMNSLRAEDTAVYYCARGYVGYGYAIDLWGQGTLVTVSSGGGGSGGGGSGGGGSAIQLTQSPSSLSASVGDRVTITCQASQSIYSSLAWYQQKPGKAPKLLIYYASILPSGVPSRFSGSGSGTDFTLTISSLQPEDFATYYCQATTYDSTYPNAFGGGTKVEIK
258 nM | 0.00428 s⁻¹ | 16600 M⁻¹ s⁻¹ | MAdCAM1 scFv 8.7 (scFv, Humanized rabbit-derived scFv, VH-(G4S)3-VL) scFv: EVQLVETGGGLIQPGGSLRLSCAASGFTLSSSYYMYWVRQAPGKGLEWVSVIYAGDGNTYYASWAKGRFTISRDNSKNTLYLQMNSLRAEDTAVYYCARGYVGYGYAIDLWGQGTLVTVSSGGGGSGGGGSGGGGSDIQMTQSPSTLSASVGDRVTITCQASQSIYSSLAWYQQKPGKAPKLLIYYASILPSGVPSRFSGSGSGTEFTLTISSLQPDDFATYYCQATTYDSTYPNAFGGGTKVEIK
89.9 nM | 0.00186 s⁻¹ | 20700 M⁻¹ s⁻¹ | MAdCAM1 scFv 8.1 (scFv, Humanized rabbit-derived scFv, VH-(G4S)3-VL) scFv: EVQLVESGGGLVQPGGSLRLSCAASGFTLSSSYYMYWVRQAPGKGLEWVSVIYAGDGNTYYASWAKGRFTISRDNSKNTLYLQMNSLRAEDTAVYYCARGYVGYGYAIDLWGQGTLVTVSSGGGGSGGGGSGGGGSDIQMTQSPSTLSASVGDRVTITCQASQSIYSSLAWYQQKPGKAPKLLIYYASILPSGVPSRFSGSGSGTEFTLTISSLQPDDFATYYCQATTYDSTYPNAFGGGTKVEIK
311 nM | 0.00696 s⁻¹ | 22400 M⁻¹ s⁻¹ | MAdCAM1 scFv 8.8 (scFv, Humanized rabbit-derived scFv, VH-(G4S)3-VL) scFv: EVQLVETGGGLIQPGGSLRLSCAASGFTLSSSYYMYWVRQAPGKGLEWVSVIYAGDGNTYYASWAKGRFTISRDNSKNTLYLQMNSLRAEDTAVYYCARGYVGYGYAIDLWGQGTLVTVSSGGGGSGGGGSGGGGSAIQLTQSPSSLSASVGDRVTITCQASQSIYSSLAWYQQKPGKAPKLLIYYASILPSGVPSRFSGSGSGTDFTLTISSLQPEDFATYYCQATTYDSTYPNAFGGGTKVEIK
114 nM | 0.00158 s⁻¹ | 13800 M⁻¹ s⁻¹ | MAdCAM1 scFv 8.5 (scFv, Humanized rabbit-derived scFv, VH-(G4S)3-VL) scFv: QVQLVESGGGVVQPGRSLRLSCAASGFTLSSSYYMYWVRQAPGKGLEWVAVIYAGDGNTYYASWAKGRFTISRDNSKNTLYLQMNSLRAEDTAVYYCARGYVGYGYAIDLWGQGTLVTVSSGGGGSGGGGSGGGGSDIQMTQSPSTLSASVGDRVTITCQASQSIYSSLAWYQQKPGKAPKLLIYYASILPSGVPSRFSGSGSGTEFTLTISSLQPDDFATYYCQATTYDSTYPNAFGGGTKVEIK
84.8 nM | 0.00218 s⁻¹ | 25700 M⁻¹ s⁻¹ | MAdCAM1 scFv 8.6 (scFv, Humanized rabbit-derived scFv, VH-(G4S)3-VL) scFv: QVQLVESGGGVVQPGRSLRLSCAASGFTLSSSYYMYWVRQAPGKGLEWVAVIYAGDGNTYYASWAKGRFTISRDNSKNTLYLQMNSLRAEDTAVYYCARGYVGYGYAIDLWGQGTLVTVSSGGGGSGGGGSGGGGSAIQLTQSPSSLSASVGDRVTITCQASQSIYSSLAWYQQKPGKAPKLLIYYASILPSGVPSRFSGSGSGTDFTLTISSLQPEDFATYYCQATTYDSTYPNAFGGGTKVEIK
1.8 nM | 0.000537 s⁻¹ | 300000 M⁻¹ s⁻¹ | MAdCAM1 scFv 17.7 (scFv, Humanized rabbit-derived scFv, VH-(G4S)3-VL) scFv: EVQLVESGGGLVKPGGSLRLSCAASGFSFSSTYYMCWVRQAPGKGLEWVSCIYTGSGNTDYASWAKGRFTISRDNAKNSLYLQMNSLRAEDTAVYYCARGGIVDSYFTYFDLWGQGTLVTVSSGGGGSGGGGSGGGGSDIQMTQSPSTLSASVGDRVTITCQASESIFSNLAWYQQKPGKAPKLLIYWASTLASGVPSRFSGSGSGTEFTLTISSLQPDDFATYYCQSYVYSSSSSNDFGGGTKVEIK
2.9 nM | 0.000868 s⁻¹ | 304000 M⁻¹ s⁻¹ | MAdCAM1 scFv 17.3 (scFv, Humanized rabbit-derived scFv, VH-(G4S)3-VL) scFv: QVQLLESGGGLVKPGGSLRLSCAASGFSFSSTYYMCWIRQAPGKGLEWVSCIYTGSGNTDYASWAKGRFTISRDNAKNSLYLQMNSLRAEDTAVYYCARGGIVDSYFTYFDLWGQGTLVTVSSGGGGSGGGGSGGGGSDIQMTQSPSTLSASVGDRVTITCQASESIFSNLAWYQQKPGKAPKLLIYWASTLASGVPSRFSGSGSGTEFTLTISSLQPDDFATYYCQSYVYSSSSSNDFGGGTKVEIK
2.3 nM | 0.000568 s⁻¹ | 247000 M⁻¹ s⁻¹ | MAdCAM1 scFv 17.1 (scFv, Humanized rabbit-derived scFv, VH-(G4S)3-VL) scFv: EVQLVESGGGLVQPGGSLRLSCAASGFSFSSTYYMCWVRQAPGKGLEWVSCIYTGSGNTDYASWAKGRFTISRHNSKNTLYLQMNSLRAEDTAVYYCARGGIVDSYFTYFDLWGQGTLVTVSSGGGGSGGGGSGGGGSDIQMTQSPSTLSASVGDRVTITCQASESIFSNLAWYQQKPGKAPKLLIYWASTLASGVPSRFSGSGSGTEFTLTISSLQPDDFATYYCQSYVYSSSSSNDFGGGTKVEIK
3.7 nM | 0.000967 s⁻¹ | 258000 M⁻¹ s⁻¹ | MAdCAM1 scFv 17.5 (scFv, Humanized rabbit-derived scFv, VH-(G4S)3-VL) scFv: QVQLVESGGGVVQPGRSLRLSCAASGFSFSSTYYMCWVRQAPGKGLEWVACIYTGSGNTDYASWAKGRFTISRDNSTNTLFLQMNSLRAEDTAVYYCARGGIVDSYFTYFDLWGQGTLVTVSSGGGGSGGGGSGGGGSDIQMTQSPSTLSASVGDRVTITCQASESIFSNLAWYQQKPGKAPKLLIYWASTLASGVPSRFSGSGSGTEFTLTISSLQPDDFATYYCQSYVYSSSSSNDFGGGTKVEIK
